In the supplement of paper PMC9233669:
Variants at the floor of the assay were thinned out.

Columns and labels:
[1] = system: biotinyl-Phe-oxazolone; assay: self-aminoacylation, catalytic enhancement (BFO) (fold over background); higher = more active; k-Seq, kA / k0A0; sequences stand for … in GGGAAUGGAUCCACAUCUACGAAUUC…UUCACUGCAGACUUGACGAAGCUG
Summary of the method: (§1)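 Catalytic enhancement equals the median kA over the uncatalyzed rate, the latter read from the low-activity peak of a bimodal Gaussian fit. Values of kA came from fitting each sequence's fraction reacted to a pseudo-first-order model, with 1000 bootstraps. Reacted RNA was captured with streptavidin and quantified by triplicate qPCR and Illumina sequencing after 90 minutes at room temperature with 2–1250 μM biotinyl-aminoacyl-oxazolone and 0.43 μM mutagenized RNA pools bearing a 21-nt variable region.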

[2] = system: biotinyl-Ile-oxazolone; assay: self-aminoacylation, catalytic enhancement (BIO) (fold over background); higher = more active; k-Seq, kA / k0A0; sequences stand for … in GGGAAUGGAUCCACAUCUACGAAUUC…UUCACUGCAGACUUGACGAAGCUG
Summary of the method: as §1

[3] = system: biotinyl-Met-oxazolone; assay: self-aminoacylation, catalytic enhancement (BMO) (fold over background); higher = more active; k-Seq, kA / k0A0; sequences stand for … in GGGAAUGGAUCCACAUCUACGAAUUC…UUCACUGCAGACUUGACGAAGCUG
Summary of the method: as §1

[4] = system: biotinyl-Val-oxazolone; assay: self-aminoacylation, catalytic enhancement (BVO) (fold over background); higher = more active; k-Seq, kA / k0A0; sequences stand for … in GGGAAUGGAUCCACAUCUACGAAUUC…UUCACUGCAGACUUGACGAAGCUG
Summary of the method: as §1

[5] = system: biotinyl-Leu-oxazolone; assay: self-aminoacylation, catalytic enhancement (BLO) (fold over background); higher = more active; k-Seq, kA / k0A0; sequences stand for … in GGGAAUGGAUCCACAUCUACGAAUUC…UUCACUGCAGACUUGACGAAGCUG
Summary of the method: as §1

[6] = system: biotinyl-Trp-oxazolone; assay: self-aminoacylation, catalytic enhancement (BWO) (fold over background); higher = more active; k-Seq, kA / k0A0; sequences stand for … in GGGAAUGGAUCCACAUCUACGAAUUC…UUCACUGCAGACUUGACGAAGCUG
Summary of the method: as §1

| Sequence | self-aminoacylation [1] | self-aminoacylation [2] | self-aminoacylation [3] | self-aminoacylation [4] | self-aminoacylation [5] | self-aminoacylation [6] |
| --- | --- | --- | --- | --- | --- | --- |
| CUACUUCCUACAAUCGGUCUG [Fam1A.1 aminoacylation ribozyme variant] | 0.51 | 0.76 | 0.835 | 0.801 | 0.671 | 0.511 |
| AUUCACCUAGGUCAUCCGGUG [Fam2.2 aminoacylation ribozyme variant] | 44.9 | 4.67 | 6.35 | 4.69 | 8.38 | 6.3 |
| AUUACACUGGUCAUCUAGUGA [Fam2.1 aminoacylation ribozyme variant] | 35 | 3.07 | 5.64 | 2.65 | 6.24 | 6.76 |
| AAGUUUGCUAAUAGUCGCGGG [Fam3.1 aminoacylation ribozyme variant] | 19.6 | 4.43 | 4.13 | 3.77 | 4.5 | 4.82 |
